In patent US5917018:

Molecular target: natural class I heavy chain molecules
Assay: binding to class I heavy chain, method not given

affinity against that of human β2-microglobulin: 5 times lower
Substance: recombinant murine β2-microglobulin
